Test results published in US20140170168A1 (published 2014).

B1: RTL1000 (two-domain β1α1 HLA-DR2 with covalently linked human MOG-35-55 peptide) (peptide-MHC)
chain: MEVGWYRPPFSRVVHLYRNGKGGGGSLVPRGSGGGGPRFLWQPKRECHFFNGTERVRFLDRYFYNQEESVRFDSDVGEFRAVTELGRPDAEYWNSQKDILEQARAAVDTYCRHNYGVVESFTVQRRVIKEEHDIDQDEDYDNPDQSGEFMFDFDGDEIFHVDMAKKETVWRLEEFGRFASFEAQGALANIAVDKANLEIMTKRSNYTPITNGGGGSGGGGSGGGGSGGGGSLHHILDAQKMVWNHR
notes: also called RTL1000-BirA; DR2/MOG-35-55
B4: Fab 2E4 (Fab, V domains shown)
VH: EVQLVESGAEVKKPGASVKVSCKASGYTFTSYYMHWVRQAPGQGLEWMGIINPSGGSTSYAQKFQGRVTMTRDTSTSTVYMELSSLRSEDTAVYYCAREGDNYYGDAFDIWGQGTMVTVSS
VL: EIVLTQSPATLSLSPGERATLSCRASQSVSSYLAWYQQKPGQAPRLLIYDASNRATGIPARFSGSGSGTDFTLTISSLEPEDFAVYYCQQRSNWPPSYTFGQGTKLEIKR
notes: also called 2E4 Fab; anti-RTL1000 TCRL Fab
B6: Fab 2C3 (Fab, V domains shown)
VH: QVQLVQSGGGVVQPGRSLRLSCAASGFTFSSYAMHWVRQAPGKGLEWVAVISYDGSNKYYADSVKGRFTISRDNSKNTLYLQMNSLRAEDTAVYYCARDRSFWSGYYIINYYYYGMDVWGQGTTVTVSS
VL: DVVMTQSPLSLPVTPGEPASISCRSSQSLLHSDGNNYLDWYLQKPGQSPQLLIYLGSNRASGVPDRFSGSGSGTDFTLKISRVEPEDVGVYYCMQALHIPLTFGQGTRLEIKR
notes: also called 2C3 Fab

Key:
Fab 2C3 = molecular target: B6; test: competition ELISA: soluble competitor varied, binding of purified Fab 2C3 to immobilised RTL1000 read
Fab 2E4 = molecular target: B4; test: competition ELISA: soluble competitor varied, binding of purified Fab 2E4 to immobilised RTL1000 read
[1] = molecular target: T1, RTL302 (empty two-domain HLA-DR2 RTL) (human); test: ELISA, soluble purified Fab on immobilised biotinylated complex or peptide
T1 construct: Two-domain MHC class II without antigenic peptide; also called empty DR2; DR2 (empty)
T1 chain: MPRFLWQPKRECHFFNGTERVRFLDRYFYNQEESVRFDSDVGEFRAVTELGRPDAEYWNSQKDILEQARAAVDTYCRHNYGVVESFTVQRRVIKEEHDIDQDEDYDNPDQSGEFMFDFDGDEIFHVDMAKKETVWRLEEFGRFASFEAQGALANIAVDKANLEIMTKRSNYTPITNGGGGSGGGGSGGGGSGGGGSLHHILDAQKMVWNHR

[2] = molecular target: T2, RTL600 (empty two-domain HLA-DP2 RTL) (human); test: ELISA, purified Fab 1B11 on immobilised RTLs and four-domain complexes
T2 construct: also called DP2 (empty)
T2 chain: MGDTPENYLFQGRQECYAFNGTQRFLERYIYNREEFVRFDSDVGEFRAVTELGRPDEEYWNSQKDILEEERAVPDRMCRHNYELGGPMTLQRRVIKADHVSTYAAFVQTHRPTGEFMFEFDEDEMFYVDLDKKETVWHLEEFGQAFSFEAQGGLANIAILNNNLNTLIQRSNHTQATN

[3] = molecular target: T3, RTL2010 (two-domain β1α1 HLA-DR4 with covalently linked GAD-555-567 peptide) (human); test: as above
T3 construct: also called RTL2010-BirA
T3 chain: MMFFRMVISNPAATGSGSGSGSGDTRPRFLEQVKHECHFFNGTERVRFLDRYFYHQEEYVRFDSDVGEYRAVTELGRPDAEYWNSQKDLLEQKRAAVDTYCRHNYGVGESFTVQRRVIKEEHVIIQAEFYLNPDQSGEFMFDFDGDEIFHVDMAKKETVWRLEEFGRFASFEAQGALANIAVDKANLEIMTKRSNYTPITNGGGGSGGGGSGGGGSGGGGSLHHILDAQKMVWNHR

[4] = molecular target: T3, RTL2010 (two-domain β1α1 HLA-DR4 with …); test: ELISA on immobilised RTL and four-domain complex (FIG. 8C)
[5] = molecular target: T4, RTL342m (two-domain β1α1 HLA-DR2 with mouse MOG-35-55 peptide) (mouse); test: ELISA, soluble Fab on immobilised RTL (FIG. 3A)
T4 construct: Differs from RTL1000 by the Pro to Ser change at position 42 of MOG; also called DR2/mMOG-35-55; β1α1DR2/mMOG-35-55
T4 chain: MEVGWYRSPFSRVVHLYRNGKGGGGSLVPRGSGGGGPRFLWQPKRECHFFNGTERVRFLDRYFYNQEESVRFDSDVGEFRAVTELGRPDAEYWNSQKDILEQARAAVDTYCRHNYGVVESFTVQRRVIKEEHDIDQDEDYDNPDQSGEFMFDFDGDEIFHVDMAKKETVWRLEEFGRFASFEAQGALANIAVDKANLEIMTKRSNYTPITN

[6] = molecular target: B1; test: SPR (ProteOn XPR36), Fab captured by immobilised anti-Fab, RTL1000 injected at 62.5-1000 nM
[7] = molecular target: T5, RTL302 (empty DR2 RTL) loaded with free MOG-35-55 peptide (human); test: sandwich ELISA: plate coated with purified Fab, loaded or empty RTL302 added, detection with mAb TU39
T5 construct: also called empty β1α1DR2-RTL loaded with MOG-35-55 peptide; MOG-35-55 loaded empty RTL302
T5 chain: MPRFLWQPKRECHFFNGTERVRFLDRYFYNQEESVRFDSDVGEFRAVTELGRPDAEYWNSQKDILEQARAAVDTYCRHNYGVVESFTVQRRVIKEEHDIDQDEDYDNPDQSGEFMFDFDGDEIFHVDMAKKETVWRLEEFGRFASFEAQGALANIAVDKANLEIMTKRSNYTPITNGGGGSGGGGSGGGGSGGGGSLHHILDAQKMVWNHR
T5 peptide: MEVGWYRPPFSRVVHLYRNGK

[8] = molecular target: T6, RTL340 (two-domain β1α1 HLA-DR2 with covalently linked MBP-85-99 peptide) (human); test: ELISA, soluble purified Fab on immobilised biotinylated complex or peptide
T6 construct: also called RTL340-BirA; DR2/MBP-85-99
T6 chain: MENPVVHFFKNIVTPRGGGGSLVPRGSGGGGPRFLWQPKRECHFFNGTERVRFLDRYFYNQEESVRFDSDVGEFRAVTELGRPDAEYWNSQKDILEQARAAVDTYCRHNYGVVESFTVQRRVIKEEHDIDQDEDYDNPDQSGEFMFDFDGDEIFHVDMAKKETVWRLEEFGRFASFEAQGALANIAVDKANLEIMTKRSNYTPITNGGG

B1: binds (Fab 2C3); binds (Fab 2E4).

B2: Fab 1B11 (Fab, V domains shown)
VH: EVQLVQSGAEVKKPGASVRVSCKASGYTFTSYGISWVRQAPGQGLEWMGWISAYNGNTNYAQKLQGRVTMTTDTSTSTAYMELRSLRSDDTAVYYCARDIRAYGSGSYSRYYYYGMDVWGQGTTVTVSS
VL: EIVLTQSPATLSVSPGERATLSCRASQNIGSILAWYQHKPGQAPRLLIYGASTRATGIPARFSGSGSGTEFTLTISSLQSDDFAVYYCQQYLYWPFTFGGGTKVEIKR
notes: also called 1B11 Fab
B2: binds [1]; no binding (tested: 5 µg/ml Fab) [2]; binds [3].

B3: Fab D2 (Fab, V domains shown)
VH: EVQLVQSGAEVKKPGSSVKVSCKASGGTFSSYAISWVRQAPGQGLEWMGIINPSGGSTSYAQKFQGRVTITADKSTSTAYMELSSLRSEDTAVYYCARGGPTGIFDYWGQGTLVTVSS
VL: EIVLTQSPATLSLSPGERATLSCRASQSVSSYLAWYQQKPGQAPRLLIYDASNRATGIPARFSGSGSGTDFTLTISSLEPEDFAVYYCQQRSNWPLTFGGGTKVEIKR
notes: the heavy chain entry holds VH, CH1, connector, His tag and Myc tag; also called D2 Fab
B3: binds [4].

In the case of B4, the “fold reduction in binding to RTL342m compared to RTL1000” value (from here on “fold reduction in binding to RTL342m”) [5] is reported as 2 fold, the Kd [6] is reported as 33 nM and the binding result [7] is reported as “binds”. B4: no binding (tested: 5 µg/ml Fab) [8]; no binding (tested: 5 µg/ml Fab) [1].

B5: Fab 3A3 (Fab, V domains shown)
VH: QVQLQESGGGLVKPGGSLRLSCAASGFTFSSYSMNWVRQAPGKGLEWVSSISSSSSYIYYADSVKGRFTISRDNAKNSLYLQMNSLRAEDTAVYYCARVRGHRYYYDSSGYYSSDYYYYYGMDVWGQGTTVTVSS
VL: DIQLTQSPSSVSASVGDRVTITCRASQVISSWLAWYQQKPGKAPKLLISTASSLQSGVPPRFSGSGSGTDFTLTITSLQPEDFATYYCQQANSFPLTFGQGTKVEIKR
notes: also called 3A3 Fab
For B5, the “fold reduction in binding to RTL342m” value [5] was 5 fold, the Kd [6] was 58 nM and the binding result [7] was “binds”. B5: no binding (tested: 5 µg/ml Fab) [8]; no binding (tested: 5 µg/ml Fab) [1].

B6 was tested, and the Kd [6] was 153 nM, the binding result [7] was “binds” and the binding result [8] was “no binding (tested: 5 µg/ml Fab)”. B6: no binding (tested: 5 µg/ml Fab) [1].

B7: Fab 1F11 (Fab, V domains shown)
VH: QLQLQESGPGLVKPSETLSLTCTVSGVSISSRSGHWGWVRQPPGKGLEWIGSISYSGSTYYNPSLKSRVTISVDTSKNQLSLKLSSVTAADTAVYYCARESHPAAALVGWGQGTLVTVSS
VL: ETTLTQSPGTLSLSPGERATLSCRASQSIINSHLAWYQQKPGQAPRLLIYGASSRATGIPDRFSGGGSGTDFTLTITRLETEDFALYFCQQYGTSPLTFGGGTRVETKR
notes: also called 1F11 Fab
For B7, the “fold reduction in binding to RTL342m” value [5] was 5 fold, the Kd [6] was 60 nM and the binding result [7] was “binds”. B7: no binding (tested: 5 µg/ml Fab) [8]; no binding (tested: 5 µg/ml Fab) [1].

B8: Fab 3H5 (Fab, V domains shown)
VH: QVQLQESGPGLVKPSETLSLTCTVSGGSISGYYWSWIRQPPGKGLEWIGYIYYSGSTNYNPSLKSRVSISVDTSKNQFSLRLSSVTAADSAVYFCARDERDAYYYGMDVWGQGTTVTVSS
VL: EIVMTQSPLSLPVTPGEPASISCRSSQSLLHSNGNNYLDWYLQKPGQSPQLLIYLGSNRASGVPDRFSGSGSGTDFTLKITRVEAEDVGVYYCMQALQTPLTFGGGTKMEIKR
notes: also called 3H5 Fab
With B8 the Kd [6] was 129 nM, the binding result [7] was “binds” and the binding result [8] was “no binding (tested: 5 µg/ml Fab)”. B8: no binding (tested: 5 µg/ml Fab) [1].
